Measured values from paper PMC7432914, “Corynebacterium glutamicum CrtR and Its Orthologs in Actinobacteria: Conserved Function and Application as Genetically Encoded Biosensor for Detection of Geranylgeranyl Pyrophosphate” (International Journal of Molecular Sciences, 2020).

Legend:
[1] = target: T1, CrtRCc (CrtR from C. callunae) (Corynebacterium callunae, UniProt M1UIJ0); assay: EMSA, inhibition of CrtR binding to own crtR promoter DNA and crtE promoter DNA; conditions: 100-650 uM GGPP, 15 min preincubation before DNA; pH 7.5, 10 mM MgCl2, room temperature
T1 construct: gene H924_00295; full length, N-terminal His-tag (pET16b) kept, E. coli BL21(DE3), Ni-NTA
T1 sequence (M1UIJ0 1-194): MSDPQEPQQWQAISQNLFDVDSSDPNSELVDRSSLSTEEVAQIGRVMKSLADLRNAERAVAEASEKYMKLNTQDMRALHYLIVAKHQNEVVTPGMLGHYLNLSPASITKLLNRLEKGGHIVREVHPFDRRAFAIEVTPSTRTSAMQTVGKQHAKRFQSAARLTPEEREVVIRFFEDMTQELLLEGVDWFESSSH

[2] = target: T2, CrtRPn (CrtR from P. nicotinovorans) (Paenarthrobacter nicotinovorans, UniProt A0ABT9TUN6); assay: EMSA, inhibition of CrtR binding to own crtR promoter DNA; conditions: 100-650 uM GGPP, 15 min preincubation before DNA; pH 7.5, 10 mM MgCl2, room temperature
T2 construct: gene J2T10_004447; full length, N-terminal His-tag (pET16b) kept, E. coli BL21(DE3), Ni-NTA; gene divergent to idi, not the mmpL-linked paralog
T2 sequence (A0ABT9TUN6 1-195): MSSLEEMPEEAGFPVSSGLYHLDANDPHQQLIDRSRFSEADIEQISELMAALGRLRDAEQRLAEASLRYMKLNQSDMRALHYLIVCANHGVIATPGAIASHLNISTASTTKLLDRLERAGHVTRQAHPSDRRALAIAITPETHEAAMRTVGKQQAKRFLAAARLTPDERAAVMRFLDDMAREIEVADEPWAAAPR

[3] = target: T3, CrtR (CrtRCg) (Corynebacterium glutamicum ATCC 13032) (UniProt Q8NSP1); assay: EMSA; conditions: 50 mM Tris-HCl pH 7.5, 10% glycerol, 50 mM KCl, 10 mM MgCl2, 0.5 mM EDTA; 20 uL, 30-90 ng DNA, 30 min at room temperature; 78 bp cg2228 upstream fragment …
T3 sequence: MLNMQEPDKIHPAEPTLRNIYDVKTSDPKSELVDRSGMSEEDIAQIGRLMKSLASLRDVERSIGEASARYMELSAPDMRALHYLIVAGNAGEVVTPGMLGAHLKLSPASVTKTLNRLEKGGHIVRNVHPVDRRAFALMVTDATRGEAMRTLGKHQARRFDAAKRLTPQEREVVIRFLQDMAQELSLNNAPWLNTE

[4] = system: T4, CrtR ortholog (CrtRPc) (Pseudarthrobacter chlorophenolicus DSM 12829), ORF:f49de8fb; assay: EMSA; conditions: 50 mM Tris-HCl pH 7.5, 10% glycerol, 50 mM KCl, 10 mM MgCl2, 0.5 mM EDTA; 20 uL, 30-90 ng DNA, 30 min at room temperature; 78 bp cg2228 upstream fragment …
T4 sequence: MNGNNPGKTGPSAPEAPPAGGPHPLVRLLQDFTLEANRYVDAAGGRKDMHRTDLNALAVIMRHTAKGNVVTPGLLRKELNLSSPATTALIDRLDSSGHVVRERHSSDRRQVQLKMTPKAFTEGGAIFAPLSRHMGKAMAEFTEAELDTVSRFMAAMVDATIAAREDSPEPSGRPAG

[5] = target: T5, CrtR (CrtRCg) (Corynebacterium glutamicum ATCC 13032, UniProt Q8NSP1 1-195); assay: EMSA; strong binding; 50 mM Tris-HCl pH 7.5, 10% glycerol, 50 mM KCl, 10 mM MgCl2, 0.5 mM EDTA; 20 uL, 30-90 ng DNA, 30 min at room temperature; 78 bp cg2228 upstream fragment (negative control) in every sample; GGPP preincubated 15 min; conditions: protein: recombinant; tags: N-terminal His-tag (pET16b), not removed; chain copies: 2; blunt
T5 sequence: T3 sequence

[6] = target: T6, CrtR ortholog (CrtRPn) (Paenarthrobacter nicotinovorans DSM 420, UniProt A0ABT9TUN6 1-195); assay: EMSA; no GGPP; not all DNA shifted; 50 mM Tris-HCl pH 7.5, 10% glycerol, 50 mM KCl, 10 mM MgCl2, 0.5 mM EDTA; 20 uL, 30-90 ng DNA, 30 min at room temperature; 78 bp cg2228 upstream fragment (negative control) in every sample; GGPP preincubated 15 min; conditions: protein: recombinant; tags: N-terminal His-tag (pET16b), not removed; chain copies: 2; blunt
T6 sequence: T2 sequence (A0ABT9TUN6 1-195)

CC(C)=CCC/C(C)=C/CC/C(C)=C/CC/C(C)=C/COP(=O)(O)OP(=O)(O)O [GGPP]
EMSA, inhibition of CrtR binding to own crtR promoter DNA and crtE promoter DNA [1]: GGPP inhibited the interaction between the tested CrtR proteins and their target DNA | EMSA, inhibition of CrtR binding to own crtR promoter DNA [2]: GGPP inhibited the interaction between the tested CrtR proteins and their target DNA

TGCCTTCCATGCGGATGGTCCACGCGGGACAAAGCGGAGTAGGATTGGTTCCACATTAGACTATCTCCATGATAGAGATAAGTGCCAGTCAAGCTTTTTCAACGGGGGCCTCCGCCGGGGGCTTCCACGGCTGAGCCAGGTAATGCCAAGGCAGCTGAAGTAATATCCCTCAGGGCCTGTGCGCAAAGACGGACGGCCCCACGAACTCCAGGAGGTGACCATGAACGGCAACAATCCGGGCA (double strand) [P. chlorophenolicus crtR-mmpl intergenic region (PcrtR)]
binding [3]: binds more weakly | binding [4]: binds

B1: P. nicotinovorans crtR-idi intergenic region (dsDNA)
DNA 1: CATACTGCGCCTTCCTCCTGCAACCTGAGTCTTTACAGCAGCCCGAATATTGCTAGACAAGCTAGAAGAAAGGCTACCATGTAGGAAGTTAGGTGTAACATACTCAGCATG
DNA 2: CATGCTGAGTATGTTACACCTAACTTCCTACATGGTAGCCTTTCTTCTAGCTTGTCTAGCAATATTCGGGCTGCTGTAAAGACTCAGGTTGCAGGAGGAAGGCGCAGTATG
binding result [5]: binds | binding result [6]: binds

B2: C. callunae crtR-mmpl intergenic region (dsDNA)
DNA 1: CGCAAGATGCCGGGAAATACGCTCTGAAGAGGGGTTTTCATGGCCTTAAACCTTTATATATGCAAATTGTTAAATTATCCAACAGTGTAAGGTATCCCATTTTCTTAAAAAAAGGGTTAATATCCATCTATGTCCGATCCGCAA
DNA 2: TTGCGGATCGGACATAGATGGATATTAACCCTTTTTTTAAGAAAATGGGATACCTTACACTGTTGGATAATTTAACAATTTGCATATATAAAGGTTTAAGGCCATGAAAACCCCTCTTCAGAGCGTATTTCCCGGCATCTTGCG
binding result [5]: binds
